Substitutions are numbered along the chain they refer to.
T1: mouse NPR1 extracellular domain expressed with a C-terminal mouse IgG2a (mNPR1-mFc) (mouse)
T1 chain: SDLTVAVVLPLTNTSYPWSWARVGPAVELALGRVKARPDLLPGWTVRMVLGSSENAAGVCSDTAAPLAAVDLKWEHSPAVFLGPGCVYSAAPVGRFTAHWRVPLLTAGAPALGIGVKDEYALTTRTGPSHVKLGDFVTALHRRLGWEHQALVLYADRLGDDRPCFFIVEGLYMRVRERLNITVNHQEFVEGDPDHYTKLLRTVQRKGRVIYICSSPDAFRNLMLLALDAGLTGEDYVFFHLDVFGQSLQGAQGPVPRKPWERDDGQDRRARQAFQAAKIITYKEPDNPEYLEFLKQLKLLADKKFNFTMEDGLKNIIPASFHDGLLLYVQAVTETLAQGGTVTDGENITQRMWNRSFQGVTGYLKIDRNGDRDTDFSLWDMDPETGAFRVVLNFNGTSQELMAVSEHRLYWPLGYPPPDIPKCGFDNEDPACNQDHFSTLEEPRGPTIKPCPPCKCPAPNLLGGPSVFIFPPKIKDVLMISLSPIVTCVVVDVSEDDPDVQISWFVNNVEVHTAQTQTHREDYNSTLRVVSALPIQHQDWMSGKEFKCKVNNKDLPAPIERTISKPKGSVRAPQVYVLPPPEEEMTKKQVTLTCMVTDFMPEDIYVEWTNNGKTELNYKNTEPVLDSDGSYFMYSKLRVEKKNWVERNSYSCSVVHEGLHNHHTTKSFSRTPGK

T2: monkey NPR1 extracellular domain expressed with a C-terminal myc-myc-hexahistidine (mfNPR1-MMH) (monkey, UniProt P16066 33-473 (human entry))
T2 construct: also called monomeric monkey NPR1
T2 chain: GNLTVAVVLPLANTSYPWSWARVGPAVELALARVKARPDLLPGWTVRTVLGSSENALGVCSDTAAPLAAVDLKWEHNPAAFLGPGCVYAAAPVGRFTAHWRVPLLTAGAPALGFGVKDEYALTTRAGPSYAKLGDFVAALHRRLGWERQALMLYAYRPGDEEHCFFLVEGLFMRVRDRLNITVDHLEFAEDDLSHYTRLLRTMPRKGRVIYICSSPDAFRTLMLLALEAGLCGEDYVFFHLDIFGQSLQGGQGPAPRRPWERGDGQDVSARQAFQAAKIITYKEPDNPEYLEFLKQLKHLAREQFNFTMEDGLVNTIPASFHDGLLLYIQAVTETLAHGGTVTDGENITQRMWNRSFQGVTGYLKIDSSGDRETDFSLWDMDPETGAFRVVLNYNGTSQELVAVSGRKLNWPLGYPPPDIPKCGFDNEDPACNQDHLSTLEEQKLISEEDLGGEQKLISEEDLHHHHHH

T3: human NPR1 extracellular domain expressed with a C-terminal mouse IgG2a (hNPR1-mFc) (human)
T3 construct: also called hNPR1-Fc; human NPR1 dimer
T3 chain: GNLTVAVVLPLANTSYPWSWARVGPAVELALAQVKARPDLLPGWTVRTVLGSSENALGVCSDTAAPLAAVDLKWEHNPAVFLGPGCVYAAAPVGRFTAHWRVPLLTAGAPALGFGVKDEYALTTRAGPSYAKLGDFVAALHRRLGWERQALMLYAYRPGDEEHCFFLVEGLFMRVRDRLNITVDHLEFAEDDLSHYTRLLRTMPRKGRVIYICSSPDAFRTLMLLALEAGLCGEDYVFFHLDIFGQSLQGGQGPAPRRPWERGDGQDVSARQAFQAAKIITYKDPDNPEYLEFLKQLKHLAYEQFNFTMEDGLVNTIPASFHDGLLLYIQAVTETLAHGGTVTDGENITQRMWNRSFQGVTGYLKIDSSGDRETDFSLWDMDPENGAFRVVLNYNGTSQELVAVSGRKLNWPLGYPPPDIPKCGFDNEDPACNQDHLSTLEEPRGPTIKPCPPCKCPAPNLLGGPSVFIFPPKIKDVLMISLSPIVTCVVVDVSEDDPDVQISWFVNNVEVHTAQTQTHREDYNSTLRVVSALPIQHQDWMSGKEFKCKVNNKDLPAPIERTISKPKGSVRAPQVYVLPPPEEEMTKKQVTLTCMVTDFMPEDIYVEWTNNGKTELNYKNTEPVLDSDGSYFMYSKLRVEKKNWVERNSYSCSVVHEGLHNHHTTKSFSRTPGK

B1: mAb22805 (antibody, V domains shown)
VH: QVQLVESGGGVVQPGRSLRLSCAASGFTFSTYGMHWVRQAPGKGLEWVALIWNDGSNKYYADSVKGRFTISRDNSKNTLDLQMNSLRAEDTAVYYCARLNTRITGTTNLDYWGQGTLVTVSS
VL: DIQMTQSPSSLSASVGDRVTVSCRASQSIANYLNWYQQKPGKAPNLLIYGAYTLQSGVPSRFRGSGSGTDFTLTISSLQPEDFATYYCQQTYSTPPITFGQGTRLEIK
B2: mAb25479 (antibody, V domains shown)
VH: QVQLVQSGAEVKKPGASVKVSCKASGYTFTGYYIHWVRQAPGQGLEWMGWINPNSIGTNYAQKFQGRVTLTRDTSISTAYMELSSLRSDDTAVYYCARGGSSSYYYYYYGMDVWGQGTTVTVSS
VL: DIQMTQSPSSLSASVGDRVTITCRASQSIDNYLNWYQQKPGKAPKLLIYVASSLQSGVPSRFSGSGSGTDFTLTISSLQPEDFATYYCQQSYSTPLTFGGGTKVEIK
B3: mAb25497 (antibody, V domains shown)
VH: QVQLVQSGAEVKEPGASVKVSCKASGYTFTDYYIHWVRQAPGQGLEWMGWINLNSGGKNHAQKFQGRVTVTSDTSINTAYIELGRLRGDDTAVYYCSRGGGSHYYYYYHGMDVWGQGTTVTVSS
VL: B2 VL with V19I, Q27H, N31S, V50P, S53T, F83S, T85I
B4: mAb25491 (antibody, V domains shown)
VH: QVQLVQSGAEVMKPGASVKVSCKASGYTFTGYYIHWVRQAPGQGLEWMGWITPNSGATNYAQKFQGRVTLTRDTSISTAYMELTRLKSDDTAVYYCARGGQLEFFYYYYGMDVWGQGTTVTVSS
VL: DIQMTQSPSSLSASAGDRVTITCRASQSIDSYLNWYQQKPGKAPKLLISATSGFQSGVPSRFSGSGSGTDFTLTISSLQPEDFGTYYCQQSYTTPITFGQGTRLEIK

Target: T1, mouse NPR1 extracellular domain …
Experiment: SPR, Tables 21 to 26
Protocol: (§1) Equilibrium dissociation constant (KD) for different NPR1 reagents binding to purified anti-NPR1 monoclonal antibodies (mAbs) were determined using a real-time surface plasmon resonance based Biacore 4000 biosensor. All binding studies were performed in 10 mM HEPES, 150 mM NaCl, 3 mM EDTA, and 0.05% v/v Surfactant Tween-20, pH 7.4 (HBS-ET) running buffer at 25° C. and 37° C. The Biacore CM5 sensor chip surface was first derivatized by amine coupling with either mouse anti-human Fc specific mAb (GE Healthcare, #BR100839) or goat anti-human Fcy specific polyclonal antibody (Jackson ImmunoResearch Laboratories, #BR-1008-39) to capture anti-NPR1 mAbs.

Binder | binding result
B1 | no binding
B2 | no binding
B3 | no binding
B4 | no binding

Target: T4, human NPR1 extracellular domain expressed with a C-terminal myc-myc-hexahistidine (hNPR1-MMH) (human, UniProt P16066 33-473)
T4 construct: also called hNPR.mmh; monomeric human NPR1
Experiment: SPR, mAb captured, 25 C
Protocol: as §1

Binder | 100 nM Ag Bound (RU) | binding result | Kd [nM] | koff [s⁻¹] | kon [M⁻¹ s⁻¹] | t½ [min]
B1 | 0 | no binding (tested: 100 nM) |  |  |  | 
B2 | 16 |  | 482 | 0.00673 | 14000 | 1.7
B3 | 22 |  | 52.7 | 0.00167 | 31700 | 6.9
B4 | 37 |  | 37.6 | 0.000983 | 26200 | 11.7

Target: T2, monkey NPR1 extracellular domain …
Experiment: SPR, mAb captured, 25 C
Protocol: as §1

Binder | 100 nM Ag Bound (RU) | binding result | Kd [nM] | koff [s⁻¹] | kon [M⁻¹ s⁻¹] | t½ [min]
B1 | 0 | no binding (tested: 100 nM) |  |  |  | 
B2 | 41 |  | 246 | 0.00682 | 27700 | 1.7
B3 | 49 |  | 59.8 | 0.00226 | 37800 | 5.1
B4 | 81 |  | 30.5 | 0.00128 | 42000 | 9

Target: T5, mouse NPR1 extracellular domain expressed with a C-terminal myc-myc-hexahistidine (mNPR1-MMH) (mouse, UniProt P18293 29-469)
Experiment: SPR, mAb captured, 25 C
Protocol: as §1

Binder | 100 nM Ag Bound (RU) | binding result
B1 | 0 | no binding (tested: 100 nM)
B2 | 0 | no binding (tested: 100 nM)
B3 | 0 | no binding (tested: 100 nM)
B4 | 0 | no binding (tested: 100 nM)

Target: T3, human NPR1 extracellular domain …
Experiment: SPR, mAb captured, 25 C
Protocol: as §1

Binder | 100 nM Ag Bound (RU) | binding result | Kd [nM] | koff [s⁻¹] | kon [M⁻¹ s⁻¹] | t½ [min]
B1 | 2 | no binding (tested: 100 nM) |  |  |  | 
B2 | 26 |  | 22.4 | 0.000852 | 38000 | 13.6
B3 | 49 |  | 0.238 | 4.83e-05 | 203000 | 239
B4 | 36 |  | 1.24 | 0.000124 | 101000 | 92.8

Target: T4, human NPR1 extracellular domain …
Experiment: SPR, mAb captured, 37 C
Protocol: as §1
Target sequence in this assay (P16066 other isoform, or with tags, fused parts or gaps): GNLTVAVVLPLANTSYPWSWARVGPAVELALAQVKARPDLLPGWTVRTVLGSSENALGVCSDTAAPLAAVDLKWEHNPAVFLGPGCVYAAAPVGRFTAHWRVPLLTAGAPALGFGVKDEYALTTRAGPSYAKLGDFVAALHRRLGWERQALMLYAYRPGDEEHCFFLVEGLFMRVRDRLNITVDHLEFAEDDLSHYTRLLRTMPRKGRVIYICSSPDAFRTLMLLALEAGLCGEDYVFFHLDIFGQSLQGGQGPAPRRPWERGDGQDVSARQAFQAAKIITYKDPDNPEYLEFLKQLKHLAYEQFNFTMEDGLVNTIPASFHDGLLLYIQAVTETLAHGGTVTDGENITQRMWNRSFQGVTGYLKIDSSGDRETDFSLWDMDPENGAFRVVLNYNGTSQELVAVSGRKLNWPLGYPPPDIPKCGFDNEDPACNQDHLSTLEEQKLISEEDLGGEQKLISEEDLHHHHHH

Binder | 100 nM Ag Bound (RU) | Kd [nM] | koff [s⁻¹] | kon [M⁻¹ s⁻¹] | t½ [min]
B1 | 1 |  |  |  | 
B2 | 16 | 689 | 0.0157 | 22800 | 0.7
B3 | 31 | 139 | 0.00258 | 18600 | 4.5
B4 | 51 | 127 | 0.00453 | 35600 | 2.5

Target: T2, monkey NPR1 extracellular domain …
Experiment: SPR, mAb captured, 37 C
Protocol: as §1

Binder | 100 nM Ag Bound (RU) | Kd [nM] | koff [s⁻¹] | kon [M⁻¹ s⁻¹] | t½ [min]
B1 | 3 |  |  |  | 
B2 | 43 | 360 | 0.0142 | 39600 | 0.8
B3 | 69 | 139 | 0.00384 | 27700 | 3
B4 | 106 | 78.4 | 0.00457 | 58300 | 2.5

Target: T5, mouse NPR1 extracellular domain …
Experiment: SPR, mAb captured, 37 C
Protocol: as §1
Target sequence in this assay (P18293 other isoform, or with tags, fused parts or gaps): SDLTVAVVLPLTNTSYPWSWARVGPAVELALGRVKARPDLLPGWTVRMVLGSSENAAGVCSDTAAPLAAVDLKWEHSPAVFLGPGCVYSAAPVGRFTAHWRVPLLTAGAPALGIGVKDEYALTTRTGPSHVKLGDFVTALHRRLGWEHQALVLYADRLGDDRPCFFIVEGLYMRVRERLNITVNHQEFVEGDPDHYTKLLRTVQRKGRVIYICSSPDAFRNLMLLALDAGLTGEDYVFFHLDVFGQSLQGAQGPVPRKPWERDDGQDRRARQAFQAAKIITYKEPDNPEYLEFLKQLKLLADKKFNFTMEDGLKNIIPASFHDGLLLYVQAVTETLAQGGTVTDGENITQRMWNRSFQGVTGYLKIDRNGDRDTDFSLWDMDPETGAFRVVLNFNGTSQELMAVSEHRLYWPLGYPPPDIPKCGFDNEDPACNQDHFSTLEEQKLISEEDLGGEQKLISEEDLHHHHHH

Binder | 100 nM Ag Bound (RU)
B1 | 1
B2 | 1
B3 | 0
B4 | 0

Target: T3, human NPR1 extracellular domain …
Experiment: SPR, mAb captured, 37 C
Protocol: as §1

Binder | 100 nM Ag Bound (RU) | Kd [nM] | koff [s⁻¹] | kon [M⁻¹ s⁻¹] | t½ [min]
B1 | 8 |  |  |  | 
B2 | 47 | 41.2 | 0.00139 | 33700 | 8.3
B3 | 43 | 7.31 | 0.00031 | 42300 | 37.3
B4 | 70 | 8.66 | 0.000363 | 41900 | 31.8
